Consider one molecule from US6429304 (University of California, dated 2002).

For this assay, the target named is T1, p80 delta 560-690 (S. purpuratus p80 katanin lacking the C-terminal 130 amino acids), in vitro translated … (Strongylocentrotus purpuratus, UniProt O61585 1-559).
T1 construct: The residues kept are derived from the deletion named; also called delta 560-690 derivative of p80; not shown: 37 amino acid N-terminal S-Tag from pCITE-4a+ (Novagen)
T1 sequence: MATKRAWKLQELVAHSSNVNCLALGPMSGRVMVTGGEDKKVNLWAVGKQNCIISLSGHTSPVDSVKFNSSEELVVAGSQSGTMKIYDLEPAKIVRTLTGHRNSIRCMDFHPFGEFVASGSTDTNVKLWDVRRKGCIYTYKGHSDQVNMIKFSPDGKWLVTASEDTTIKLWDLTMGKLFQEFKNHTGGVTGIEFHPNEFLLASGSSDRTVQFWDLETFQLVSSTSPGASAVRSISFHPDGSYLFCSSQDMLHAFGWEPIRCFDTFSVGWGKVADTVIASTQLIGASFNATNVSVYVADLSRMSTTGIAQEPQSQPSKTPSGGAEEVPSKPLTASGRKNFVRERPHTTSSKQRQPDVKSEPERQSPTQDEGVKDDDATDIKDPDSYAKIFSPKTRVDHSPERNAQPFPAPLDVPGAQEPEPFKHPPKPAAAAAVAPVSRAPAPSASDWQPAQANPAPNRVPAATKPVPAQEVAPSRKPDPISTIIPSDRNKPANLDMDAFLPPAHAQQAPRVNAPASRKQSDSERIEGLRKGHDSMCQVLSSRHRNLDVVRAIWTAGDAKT
Kind of assay: co-translation in rabbit reticulocyte lysate, immunoprecipitation with anti-p60 antibody. Here is the method:
In vitro synthesis of proteins directly from plasmid DNAs was accomplished using the Single Tube Protein System 2, T7 (Novagen). […] For immunoprecipitations, lysates were incubated on ice with Pansorbin (Calbiochem)-antibody complexes, washed in NET buffer (50 mM Tris-Cl (pH 7.5), 150 mM NaCl, 0.1% Nonidet P40, 1 mM EDTA (pH 8.0), 0.25% gelatin and 0.02% sodium azide), then resuspended in SDS-PAGE sample buffer. In vitro translation products in both the pellets and supernatants from the immunoprecipitations were resolved by SDS-PAGE, transferred to nitrocellulose, probed with S-protein HRP conjugate (Novagen) and detected by chemiluminescence.

B1: in vitro translated S. purpuratus p60 katanin with 37 amino acid N-terminal S-Tag (enzyme)
chain: MSVDEICENTKMGREYALLGNYETSLVYYQGVLQQIQKLLTSVHEPQRKHQWQTIRQELSQEYEHVKNITKTLNGFKSEPAAPEPAPNHRAAPFSHHQHAAKPAAAEPARDPDVWPPPTPVDHRPSPPYQRAARKDPPRRSEPSKPANRAPGNDRGGRGPSDRRGDARSGGGGRGGARGSDKDKNRGGKSDKDKKAPSGEEGDEKKFDPAGYDKDLVENLERDIVQRNPNVHWADIAGLTEAKRLLEEAVVLPLWMPDYFKGIRRPWKGVLMVGPPGTGKTMLAKAVATECGTTFFNVSSASLTSKYHGESEKLVRLLFEMARFYAPSTIFIDEIDSICSKRGTGSEHEASRRVKSELLIQMDGVSGPSAGEESSKMVMVLAATNFPWDIDEALRRRLEKRIYIPLPEIDGREQLLRINLKEVPLADDIDLKSIAEKMDGYSGADITNVCRDASMMAMRRRIQGLRPEEIRHIPKEELNQPSTPADFLLALQKVSKSVGKEDLVKYMAWMEEFGSV
notes: Made in a rabbit reticulocyte coupled transcription-translation reaction; not shown: 37 amino acid N-terminal S-Tag from pCITE-4a+ (Novagen)
Regarding B1, the binding result is on record as “no binding”.
